From US20160031974A1 (UCB, published 2016)

T1: Human OX40 expressed on the cell surface (activated human CD4+ OX40+ T cells) (human, UniProt P43489 29-277)
T1 construct: whole, on cells; Also used as the target for the functional assays on human PBMC; also called cell-surface expressed OX40
T1 sequence (looked up): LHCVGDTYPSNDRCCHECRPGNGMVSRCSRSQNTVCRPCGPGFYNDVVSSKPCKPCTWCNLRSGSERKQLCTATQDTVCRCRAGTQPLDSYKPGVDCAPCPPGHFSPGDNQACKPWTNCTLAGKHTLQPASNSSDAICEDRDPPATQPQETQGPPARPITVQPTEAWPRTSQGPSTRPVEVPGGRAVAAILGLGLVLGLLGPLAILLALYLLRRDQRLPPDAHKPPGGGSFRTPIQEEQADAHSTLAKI

T2: Human OX40 (soluble analyte in BIAcore) (human, UniProt P43489 29-214, limits assumed)
T2 construct: also called hOX40
T2 sequence (looked up): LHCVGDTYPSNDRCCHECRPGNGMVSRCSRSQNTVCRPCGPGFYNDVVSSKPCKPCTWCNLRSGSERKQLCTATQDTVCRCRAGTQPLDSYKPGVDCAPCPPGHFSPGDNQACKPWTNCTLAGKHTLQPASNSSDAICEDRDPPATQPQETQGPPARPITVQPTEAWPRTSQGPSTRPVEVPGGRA


Columns and labels:
Human Serum Albumin = target: T3, Human Serum Albumin (human, UniProt P02768 25-609); assay: SPR (BIAcore T200), Fab-Fv captured by anti-human F(ab′)2, albumin as analyte; average of 3
T3 construct: also called HSA; HAS [sic]
Procedure: (§1) BIA (Biamolecular Interaction Analysis) was performed using a BIAcore T200 (GE Healthcare). Affinipure F(ab′)₂ Fragment goat anti-human IgG, F(ab′)₂ fragment specific (Jackson ImmunoResearch) was immobilised on a CM5 Sensor Chip via amine coupling chemistry to a capture level of ≈5000 response units (RUs). HBS-EP buffer (10 mM HEPES pH 7.4, 0.15 M NaCl, 3 mM EDTA, 0.05% Surfactant P20, GE Healthcare) was used as the running buffer with a flow rate of 10 μL/min. A 10 μL injection of Fab-Fv at 0.75 μg/mL was used for capture by the immobilised anti-human IgG-F(ab′)₂. Human Serum Albumin (HSA), Mouse Serum albumin (MSA) and Cynomolgus Serum Albumin (CSA) was titrated over the captured Fab-Fv at various concentrations (50 nM to 6.25 nM) at a flow rate of 30 μL/min. The surface was regenerated by 2×10 μL injection of 50 mM HCl, followed by a 5 μL injection of 5 mM NaOH at a flowrate of 10 μL/min. Background subtraction binding curves were analysed using the T200evaluation software (version 1.0) following standard procedures. Kinetic parameters were determined from the fitting algorithm.

Cynomolgus Serum Albumin = target: T4, Cynomolgus Serum Albumin (cynomolgus, UniProt A2V9Z4 25-608); assay: as above
T4 construct: also called CSA
Procedure: as §1

Mouse Serum albumin = target: T5, Mouse Serum albumin (mouse, UniProt P07724 25-608); assay: as above
T5 construct: also called MSA
Procedure: as §1

[1] = target: T1, Human OX40 expressed on the cell …; assay: flow cytometry saturation binding on activated human CD4+ OX40+ T cells, with 5% HSA
Procedure: (§2) Specific binding of antibody to receptor at equilibrium across a range of antibody concentrations was used to determine KD, assuming that only a very small fraction of antibody was bound to receptor at any point on the binding curve.
(§3) PBMC were isolated by separation on a Ficoll gradient and activated with 4 μg/mL PHA-L for 3 days at 37° C., 5% CO₂, 100% humidity. Following this, CD4⁺ T cells were isolated by negative selection using magnetic beads (CD4⁺ T cell Isolation Kit II for Human; Miltenyi Biotec). Approximately 1×10⁵ cells were incubated in the presence of antibody in either Facs buffer (PBS/0.2% BSA/0.09% NaN3) or Facs buffer supplemented with 5% HSA, at 4° C. The final concentration of the antibody ranged from 48 nM-0.0005 nM. The cells were washed in PBS prior to analysis by flow cytometry using a FACScalibur (Becton Dickinson). […] The number of moles of bound antibody was calculated by using interpolated values from a standard curve generated from beads comprised of differing but known amounts of fluorescent dye. Geometric mean fluorescence values were determined in the flow cytometric analyses of cells and beads. Non-specific binding was subtracted from the A26 Fab-Fv values and the specific binding curve thus generated analysed by non-linear regression using a one-site binding equation (Graphpad Prism®) to determine the KD.

[2] = target: T2, Human OX40 (soluble analyte in BIAcore); assay: SPR (BIAcore T200), antibody captured by anti-human F(ab′)2, human OX40 as analyte; average of 4
Procedure: as §1, with “of A26 Fab′” for “of Fab-Fv”, “at 0.5 μg/mL or A26Fab-dsFv at 1” for “at 0.75”, “Human OX40” for “Human Serum Albumin (HSA), Mouse Serum albumin (MSA) and Cynomolgus Serum Albumin (CSA)”, “captured A26” for “captured Fab-Fv”, “concentrations (25” for “concentrations (50”, “to 1.5625” for “to 6.25”

[3] = target: T1, Human OX40 expressed on the cell …; assay: flow cytometry competition on activated human CD4+OX40+ T cells; competitor OX40L (biotinylated CD252 muCD8) at 2 µg/mL
Procedure: (§4) The capacity of A26 Fab-dsFv to block the interaction between cell-surface expressed OX40 and recombinant OX40L was measured using a flow cytometry-based ligand blocking assay. Briefly, activated human CD4⁺OX40⁺ T cells were pre-incubated with a titration of A26 Fab-Fv. Recombinant OX40L was subsequently added to the cells and allowed to bind in the presence of A26 Fab-dsFv. The proportion of OX40L bound was then detected by flow cytometry using a labelled secondary reagent.
(§5) PBMC were isolated by separation on a Ficoll gradient and activated with 4 μg/mL PHA-L (Sigma) for 3 days at 37° C., 5% CO₂, 100% humidity. CD4⁺ T cells were then purified from the culture by negative selection using MACS columns (Miltenyi Biotech, CD4⁺ T cell isolation kit II). 2×10⁵ CD4⁺ T cells were incubated in the presence of A26 Fab-dsFv (final concentration range 10 μg/mL-0.000056 μg/mL (136.6 nM-0.000765 nM)) for 30 minutes at 4° C. OX40L (biotinylated CD252 muCD8, Ancell) was added at a final concentration of 2 μg/mL and incubated for a further 30 minutes at 4° C. Cells were washed and OX40L binding detected by incubation with PE-labelled streptavadin (Jackson Immunoresearch) prior to analysis by flow cytometry using a FACS Canto (Becton Dickinson). A matched non-OX40 binding Fab-dsFv was used as a control. The inhibition curve was analysed by non-linear regression (Graphpad Prism®) to determine the IC₅₀. […]

[4] = target: T1, Human OX40 expressed on the cell …; assay: cell-based or functional assay
[5] = target: T1, Human OX40 expressed on the cell …; assay: flow cytometry ligand-blocking assay on activated human CD4+ OX40+ T cells; blocked ligand: recombinant OX40L (biotinylated CD252 muCD8)
Procedure: as §4, §5

[6] = target: T1, Human OX40 expressed on the cell …; assay: flow cytometry binding on activated human CD4+ OX40+ T cells in 5% HSA, % maximal binding, mean of 4 or 5 donors
Procedure: Binding of AlexaFluor488-labelled A26 Fab-Fv to activated human CD4⁺0 X40⁺ T cells was measured by flow cytometry across a 5-log concentration range.
PBMC were isolated by separation on a Ficoll gradient and activated with 4 μg/mL PHA-L for 3 days at 37° C., 5% CO₂, 100% humidity. Following this, CD4⁺ T cells were isolated by negative selection using magnetic beads (CD4⁺ T cell Isolation Kit II for Human; Miltenyi Biotec). Approximately 1×10⁵ cells were incubated in the presence of antibody in either Facs buffer (PBS/0.2% BSA/0.09% NaN3) or Facs buffer supplemented with 5% HSA, at 4° C. The final concentration of the antibody ranged from 48 nM-0.0005 nM. The cells were washed in PBS prior to analysis by flow cytometry using a FACScalibur (Becton Dickinson). Titration data sets were also produced for isotype control antibodies for each A26 format to determine non specific binding. The number of moles of bound antibody was calculated by using interpolated values from a standard curve generated from beads comprised of differing but known amounts of fluorescent dye. Geometric mean fluorescence values were determined in the flow cytometric analyses of cells and beads. Non-specific binding was subtracted from the A26 Fab-Fv values and the specific binding curve thus generated analysed by non-linear regression using a one-site binding equation (Graphpad Prism®) to determine the KD.

[7] = target: T1, Human OX40 expressed on the cell …; assay: flow cytometry saturation binding on activated human CD4+ OX40+ T cells, no HSA
Procedure: as §2, §3

[8] = target: T1, Human OX40 expressed on the cell …; assay: cell-based or functional assay; remark: listed apart in the source

Kd (Human Serum Albumin) [nM] | koff (Human Serum Albumin) [s⁻¹] | kon (Human Serum Albumin) [M⁻¹ s⁻¹] | Kd (Cynomolgus Serum Albumin) [nM] | koff (Cynomolgus Serum Albumin) [s⁻¹] | kon (Cynomolgus Serum Albumin) [M⁻¹ s⁻¹] | Kd (Mouse Serum albumin) [nM] | koff (Mouse Serum albumin) [s⁻¹] | kon (Mouse Serum albumin) [M⁻¹ s⁻¹] | Kd [1] [nM] | Kd [2] [nM] | koff [2] [s⁻¹] | kon [2] [M⁻¹ s⁻¹] | EC50 [3] [nM] | Inhibition of IL-5 Production EC50 (human HDM in vitro assay) [4] [nM] | Inhibition of IL-13 Production EC50 (human HDM in vitro assay) [4] [nM] | IC50 (read off the curve) [5] [nM] | EC50 (read off the curve) [6] [nM] | Kd [7] [nM] | EC50 for inhibition of human MLR proliferative response [8] [nM] | Binder
2.93 | 0.000163 | 58400 | 2.66 | 0.000189 | 71000 | 4.16 | 0.000368 | 88600 |  |  |  |  |  |  |  |  |  |  |  | A26 Fab-dsFv (645gH5gL4) (bispecific antibody, also called A26 Fab-Fv; Fab-Fv) heavy: EVQLVESGGGLVQPGGSLRLSCAASGFTFTNYGIHWIRQAPGKGLEWVASISPSGGLTYYRDSVKGRFTISRDDAKNSPYLQMNSLRAEDTAVYYCATGGEGIFDYWGQGTLVTVSSASTKGPSVFPLAPSSKSTSGGTAALGCLVKDYFPEPVTVSWNSGALTSGVHTFPAVLQSSGLYSLSSVVTVPSSSLGTQTYICNVNHKPSNTKVDKKVEPKSCSGGGGSGGGGTGGGGSEVQLLESGGGLVQPGGSLRLSCAVSGIDLSNYAINWVRQAPGKCLEWIGIIWASGTTFYATWAKGRFTISRDNSKNTVYLQMNSLRAEDTAVYYCARTVPGYSTAPYFDLWGQGTLVTVSS light: DIQMTQSPSSLSASVGDRVTITCRATQSIYNALAWYQQKPGKAPKLLIYNANTLHTGVPSRFSASGSGTDSTLTISSLQPEDFATYYCQQYYDYPLTFGGGTKVEIKRTVAAPSVFIFPPSDEQLKSGTASVVCLLNNFYPREAKVQWKVDNALQSGNSQESVTEQDSKDSTYSLSSTLTLSKADYEKHKVYACEVTHQGLSSPVTKSFNRGECGGGGSGGGGSGGGGSDIQMTQSPSSVSASVGDRVTITCQSSPSVWSNFLSWYQQKPGKAPKLLIYEASKLTSGVPSRFSGSGSGTDFTLTISSLQPEDFATYYCGGGYSSISDTTFGCGTKVEIKRT
 |  |  |  |  |  |  |  |  | 0.23 | 0.0484 | 1.12e-05 | 233000 | 0.739 | 1.31 | 0.928 | ~0.7 | ~0.2 | 0.322 | 0.88 | A26 Fab′-PEG (A26 Fab-40K PEG′ described in WO2010/096418) (Fab, V domains shown, 40K PEG; site of attachment not given) VH: EVQLVESGGGLVQPGGSLRLSCAASGFTFTNYGIHWIRQAPGKGLEWVASISPSGGLTYYRDSVKGRFTISRDDAKNSPYLQMNSLRAEDTAVYYCATGGEGIFDYWGQGTLVTVSS VL: DIQMTQSPSSLSASVGDRVTITCRATQSIYNALAWYQQKPGKAPKLLIYNANTLHTGVPSRFSASGSGTDSTLTISSLQPEDFATYYCQQYYDYPLTFGGGTKVEIKR
 |  |  |  |  |  |  |  |  | 0.068 | ≤ 0.0468 | ≤ 1e-05 | 218000 | 0.242 | 0.68 | 0.335 | ~0.3 | ~0.09 | 0.085 | 0.25 | A26 Fab′ (Fab, V domains shown) VH: EVQLVESGGGLVQPGGSLRLSCAASGFTFTNYGIHWIRQAPGKGLEWVASISPSGGLTYYRDSVKGRFTISRDDAKNSPYLQMNSLRAEDTAVYYCATGGEGIFDYWGQGTLVTVSS VL: DIQMTQSPSSLSASVGDRVTITCRATQSIYNALAWYQQKPGKAPKLLIYNANTLHTGVPSRFSASGSGTDSTLTISSLQPEDFATYYCQQYYDYPLTFGGGTKVEIKR
